Measurements: patent US20240309103A1 (Regeneron, published 2024)

Experiments:
[1] = molecular target: T1, mfNPR1-mFc (monkey); assay: SPR, mAb captured, 37C
T1 construct: also called dimeric monkey NPR1
T1 chain: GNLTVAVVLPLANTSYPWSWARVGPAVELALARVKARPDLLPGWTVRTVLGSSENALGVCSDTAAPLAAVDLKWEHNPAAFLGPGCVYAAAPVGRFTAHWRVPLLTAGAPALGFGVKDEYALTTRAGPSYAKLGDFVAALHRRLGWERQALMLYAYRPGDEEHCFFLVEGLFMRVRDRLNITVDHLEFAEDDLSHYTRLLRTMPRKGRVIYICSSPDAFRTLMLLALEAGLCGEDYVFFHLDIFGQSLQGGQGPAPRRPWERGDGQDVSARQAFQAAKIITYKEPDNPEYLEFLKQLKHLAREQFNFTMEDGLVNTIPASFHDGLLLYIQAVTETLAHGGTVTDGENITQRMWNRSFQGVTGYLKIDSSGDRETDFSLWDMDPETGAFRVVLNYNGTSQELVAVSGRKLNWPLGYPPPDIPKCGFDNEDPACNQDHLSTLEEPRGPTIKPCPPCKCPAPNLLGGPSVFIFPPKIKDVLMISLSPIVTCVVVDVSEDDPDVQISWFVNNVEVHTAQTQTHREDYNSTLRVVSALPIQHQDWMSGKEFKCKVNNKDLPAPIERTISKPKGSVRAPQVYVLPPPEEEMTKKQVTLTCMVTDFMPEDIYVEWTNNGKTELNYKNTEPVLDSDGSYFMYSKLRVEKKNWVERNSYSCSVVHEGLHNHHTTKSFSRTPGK
Description: (§1) Equilibrium dissociation constant (KD) for different NPR1 reagents binding to purified anti-NPR1 monoclonal antibodies (mAbs) were determined using a real-time surface plasmon resonance based Biacore 4000 biosensor. All binding studies were performed in 10 mM HEPES, 150 mM NaCl, 3 mM EDTA, and 0.05% v/v Surfactant Tween-20, pH 7.4 (HBS-ET) running buffer at 25° C. and 37° C. The Biacore CM5 sensor chip surface was first derivatized by amine coupling with either mouse anti-human Fc specific mAb (GE Healthcare, #BR100839) or goat anti-human Fcy specific polyclonal antibody (Jackson ImmunoResearch Laboratories, #BR-1008-39) to capture anti-NPR1 mAbs.

[2] = molecular target: T2, mfNPR1-mFc:hANP complex (monkey; human, UniProt P01160 124-151); assay: SPR, mAb captured, 37C
T2 construct: also called monkey NPR1 complexed to ANP
Description: as §1

[3] = molecular target: T3, hNPR1-mFc:hBNP complex (human, UniProt P16860 103-134); assay: SPR, mAb captured, 37C
T3 construct: also called human NPR1 complexed to BNP
Description: as §1

[4] = molecular target: T4, hNPR1-mFc:hANP or hNPR1-hFc:hANP complex (human, UniProt P01160 124-151); assay: SPR, mAb captured, 37C
T4 construct: also called human NPR1 complexed to ANP
Description: as §1

[5] = molecular target: T1, mfNPR1-mFc; assay: SPR, mAb captured, 25C
Description: as §1

[6] = molecular target: T2, mfNPR1-mFc:hANP complex; assay: SPR, mAb captured, 25C
Description: as §1

[7] = molecular target: T3, hNPR1-mFc:hBNP complex; assay: SPR, mAb captured, 25C
Description: as §1

[8] = molecular target: T4, hNPR1-mFc:hANP or hNPR1-hFc:hANP complex; assay: SPR, mAb captured, 25C
Description: as §1

[9] = molecular target: T5, mfNPR1-mFc:hBNP complex (monkey; human, UniProt P16860 103-134); assay: SPR, mAb captured, 25C
T5 construct: also called monkey NPR1 complexed to BNP
Description: as §1

B1: mAb22033 (antibody, human IgG4, V domains shown)
VH: QVQLVQSGAEVKKPGASVTVSCKASGYTFTDYYMHWVRQAPGQGLEWMGWIKPNSGGTNSAQRFQGRITMTWDTSISTAYMELSRLRSDDTAVYYCSRGGPVMNYYYYYGMDVWGQGTTVTVSS
VL: NIQMTQSPSSLSASVGDRVTITCRASQSIDSYLNWYQQKPGKAPKLLIYVASSLQSGVPSRFSGSGSGKDFTLTISSLQPEDFATYYCQQSYSIPTFGQGTRLEIK
100 nM Ag Bound (RU) [1]: 126 RU
Kd [1]: 2.06 nM
koff [1]: 9.9e-05 s⁻¹
kon [1]: 48200 M⁻¹ s⁻¹
t½ [1]: 1.95 h
100 nM Ag Bound (RU) [2]: 169 RU
Kd [2]: 1.31 nM
koff [2]: 8.9e-05 s⁻¹
kon [2]: 68000 M⁻¹ s⁻¹
t½ [2]: 2.16 h
100 nM Ag Bound (RU) [3]: 108 RU
Kd [3]: 1.79 nM
koff [3]: 9.6e-05 s⁻¹
kon [3]: 53700 M⁻¹ s⁻¹
t½ [3]: 2 h
100 nM Ag Bound (RU) [4]: 108 RU
Kd [4]: 1.69 nM
koff [4]: 9.8e-05 s⁻¹
kon [4]: 57900 M⁻¹ s⁻¹
t½ [4]: 1.97 h
100 nM Ag Bound (RU) [5]: 96 RU
Kd [5]: 0.938 nM
koff [5]: 4.85e-05 s⁻¹
kon [5]: 51700 M⁻¹ s⁻¹
t½ [5]: 3.97 h
100 nM Ag Bound (RU) [6]: 133 RU
Kd [6]: 0.815 nM
koff [6]: 5.36e-05 s⁻¹
kon [6]: 65800 M⁻¹ s⁻¹
t½ [6]: 3.59 h
100 nM Ag Bound (RU) [7]: 85 RU
Kd [7]: 1.23 nM
koff [7]: 6.67e-05 s⁻¹
kon [7]: 54300 M⁻¹ s⁻¹
t½ [7]: 2.89 h
100 nM Ag Bound (RU) [8]: 84 RU
Kd [8]: 1.43 nM
koff [8]: 8.6e-05 s⁻¹
kon [8]: 60300 M⁻¹ s⁻¹
t½ [8]: 2.24 h
100 nM Ag Bound (RU) [9]: 132 RU
Kd [9]: 0.781 nM
koff [9]: 5.15e-05 s⁻¹
kon [9]: 65900 M⁻¹ s⁻¹
t½ [9]: 3.74 h

B2: mAb25545 (antibody, human IgG4, V domains shown)
VH: QVQLVESGGGLVKPGGSLRLSCAASGFTFSDYHLSWIRQAPGKGLEWVSYIRSSGRTIDYAASVKGRFTISRDNAKNSLYLQMNSLRVEDTAVYYCARENWIVLKVYAGIVGAPLDQWGQGTLVTVSS
VL: not shown
100 nM Ag Bound (RU) [1]: 26 RU
Kd [1]: 2.62 nM
koff [1]: 0.000144 s⁻¹
kon [1]: 55100 M⁻¹ s⁻¹
t½ [1]: 1.33 h
100 nM Ag Bound (RU) [2]: 86 RU
Kd [2]: 2.04 nM
koff [2]: 8.18e-05 s⁻¹
kon [2]: 40100 M⁻¹ s⁻¹
t½ [2]: 2.35 h
100 nM Ag Bound (RU) [3]: 56 RU
Kd [3]: 2.85 nM
koff [3]: 9.84e-05 s⁻¹
kon [3]: 34600 M⁻¹ s⁻¹
t½ [3]: 1.95 h
100 nM Ag Bound (RU) [4]: 58 RU
Kd [4]: 2.35 nM
koff [4]: 8.61e-05 s⁻¹
kon [4]: 36700 M⁻¹ s⁻¹
t½ [4]: 2.24 h
100 nM Ag Bound (RU) [6]: 45 RU
Kd [6]: 2.35 nM
koff [6]: 5.37e-05 s⁻¹
kon [6]: 22800 M⁻¹ s⁻¹
t½ [6]: 3.58 h
100 nM Ag Bound (RU) [7]: 27 RU
Kd [7]: 2.72 nM
koff [7]: 6.26e-05 s⁻¹
kon [7]: 23000 M⁻¹ s⁻¹
t½ [7]: 3.08 h
100 nM Ag Bound (RU) [8]: 28 RU
Kd [8]: 1.98 nM
koff [8]: 4.63e-05 s⁻¹
kon [8]: 23400 M⁻¹ s⁻¹
t½ [8]: 4.16 h
100 nM Ag Bound (RU) [9]: 42 RU
Kd [9]: 2.08 nM
koff [9]: 4.97e-05 s⁻¹
kon [9]: 23900 M⁻¹ s⁻¹
t½ [9]: 3.88 h
